Data from patent publication US20240400677A1 (ELECTRA THERAPEUTICS, published 2024).

T1: cynomolgus monkey SIRPα on CHO cells (cynomolgus monkey, UniProt A0A2K5VYQ9 31-507)
T1 construct: whole, on cells; also called Cyno SIRPα CHO
T1 sequence: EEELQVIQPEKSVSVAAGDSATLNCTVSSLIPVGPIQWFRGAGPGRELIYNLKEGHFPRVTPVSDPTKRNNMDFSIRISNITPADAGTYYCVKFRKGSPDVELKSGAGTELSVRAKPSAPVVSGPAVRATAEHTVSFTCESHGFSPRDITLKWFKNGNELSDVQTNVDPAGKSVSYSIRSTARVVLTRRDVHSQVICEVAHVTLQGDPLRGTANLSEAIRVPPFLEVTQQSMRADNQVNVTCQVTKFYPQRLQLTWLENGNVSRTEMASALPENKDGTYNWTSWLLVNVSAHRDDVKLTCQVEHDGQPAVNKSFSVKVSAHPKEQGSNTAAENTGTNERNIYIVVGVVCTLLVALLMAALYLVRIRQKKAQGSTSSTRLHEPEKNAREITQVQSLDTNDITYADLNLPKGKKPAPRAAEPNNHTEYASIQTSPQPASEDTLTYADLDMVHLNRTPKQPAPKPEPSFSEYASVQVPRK

T2: cynomolgus monkey SIRPγ-His monomer protein (cynomolgus monkey, UniProt Q9P1W8 29-359 (human entry), limits assumed)
T2 construct: also called Cyno SIRPγ; Cyno SIRPγ-His
T2 chain: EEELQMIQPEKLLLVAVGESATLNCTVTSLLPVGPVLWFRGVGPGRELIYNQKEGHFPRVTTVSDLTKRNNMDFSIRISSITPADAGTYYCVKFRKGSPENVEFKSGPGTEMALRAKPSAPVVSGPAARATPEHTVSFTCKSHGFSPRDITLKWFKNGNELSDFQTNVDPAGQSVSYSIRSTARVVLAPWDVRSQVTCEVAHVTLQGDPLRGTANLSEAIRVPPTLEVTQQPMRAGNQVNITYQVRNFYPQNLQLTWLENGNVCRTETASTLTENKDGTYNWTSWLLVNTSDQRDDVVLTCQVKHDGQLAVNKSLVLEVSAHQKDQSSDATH

T3: cynomolgus monkey SIRPγ on CHO cells (cynomolgus monkey, UniProt Q9P1W8 29-386 (human entry))
T3 construct: also called Cyno SIRPγ CHO
T3 chain: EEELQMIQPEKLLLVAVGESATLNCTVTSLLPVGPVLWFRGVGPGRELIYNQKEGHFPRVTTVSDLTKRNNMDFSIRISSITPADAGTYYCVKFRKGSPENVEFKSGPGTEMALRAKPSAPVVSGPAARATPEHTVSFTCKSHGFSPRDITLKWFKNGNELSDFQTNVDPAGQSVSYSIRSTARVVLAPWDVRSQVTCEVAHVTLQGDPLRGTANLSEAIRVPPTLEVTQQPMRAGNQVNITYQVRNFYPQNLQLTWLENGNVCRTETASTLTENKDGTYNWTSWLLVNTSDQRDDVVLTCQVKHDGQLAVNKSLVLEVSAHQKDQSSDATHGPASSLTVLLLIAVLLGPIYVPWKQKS


Legend:
[1] = biological target: T4, human SIRPβ1 on CHO cells (co-transfected with DAP12) (human, UniProt O00241 30-398); assay: flow cytometry
T4 construct: whole, on cells; co-transfected with DAP12; also called Human SIRPβ1 CHO
T4 sequence (O00241 30-398): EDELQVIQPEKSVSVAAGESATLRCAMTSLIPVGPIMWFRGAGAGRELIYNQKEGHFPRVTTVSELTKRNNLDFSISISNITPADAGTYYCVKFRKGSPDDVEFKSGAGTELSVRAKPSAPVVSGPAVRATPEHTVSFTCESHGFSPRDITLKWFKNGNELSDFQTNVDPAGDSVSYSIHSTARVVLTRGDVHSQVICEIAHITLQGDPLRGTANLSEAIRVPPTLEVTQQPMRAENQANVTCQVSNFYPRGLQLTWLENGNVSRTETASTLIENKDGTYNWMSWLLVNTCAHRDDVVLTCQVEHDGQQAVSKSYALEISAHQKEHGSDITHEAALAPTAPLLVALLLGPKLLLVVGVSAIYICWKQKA

[2] = biological target: T1, cynomolgus monkey SIRPα on CHO cells; assay: flow cytometry
[3] = biological target: T2, cynomolgus monkey SIRPγ-His monomer …; assay: BLI Octet, captured scFv PPE, cyno SIRP
Description: Unique binders were further tested for binding to human SIRPαV1, human SIRPαV2, and human SIRPβ1. Briefly, biotinylated anti-V5 was immobilized onto streptavidin biosensors. Each V5-tagged SIRPγ scFv antibody as crude PPE was captured by the anti-V5 antibody. SIRP-His monomer protein at 500 nM was exposed to the biosensor for binding to SIRP scFv. The biosensors were then exposed to wash buffer to measure off-rate kinetics. The resulting association and dissociation kinetics (kdis) was analyzed. […] Similarly, cross-reactivity to cynomolgus monkey SIRPγ, cynomolgus monkey SIRPα, and cynomolgus monkey SIRPβ1 were tested.

[4] = biological target: T5, human SIRPγ on stably transfected CHO cells (human, UniProt Q9P1W8 29-387); assay: flow cytometry, myc-scFv PPE
T5 construct: also called Human SIRPγ CHO
T5 sequence (Q9P1W8 29-387 limits assumed): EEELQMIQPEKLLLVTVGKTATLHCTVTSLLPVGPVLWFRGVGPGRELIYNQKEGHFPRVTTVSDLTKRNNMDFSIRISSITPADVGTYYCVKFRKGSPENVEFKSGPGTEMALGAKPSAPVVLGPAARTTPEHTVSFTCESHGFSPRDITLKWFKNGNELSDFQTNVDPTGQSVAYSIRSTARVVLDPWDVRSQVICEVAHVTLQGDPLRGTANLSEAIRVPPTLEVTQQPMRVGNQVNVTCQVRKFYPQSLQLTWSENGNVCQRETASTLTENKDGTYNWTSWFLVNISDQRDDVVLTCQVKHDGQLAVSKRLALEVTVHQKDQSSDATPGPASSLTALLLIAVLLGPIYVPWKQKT
Outline: (§1)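 Flow cytometry on stable CHO transfectants; antibody titration; fluorescent anti-human IgG detection; MFI per concentration. myc-tagged scFv: crude PPE on SIRP-expressing CHO and parental CHO-K1; fold change <2.0 = non-binder.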

[5] = biological target: T3, cynomolgus monkey SIRPγ on CHO cells; assay: flow cytometry, myc-scFv PPE
Outline: as §1

[6] = biological target: T6, human SIRPγ-His monomer protein (human, UniProt Q9P1W8 29-360); assay: BLI Octet, V5-scFv PPE captured, SIRP-His 500 nM
T6 construct: also called hSIRPγ
T6 sequence (Q9P1W8 29-360 limits assumed): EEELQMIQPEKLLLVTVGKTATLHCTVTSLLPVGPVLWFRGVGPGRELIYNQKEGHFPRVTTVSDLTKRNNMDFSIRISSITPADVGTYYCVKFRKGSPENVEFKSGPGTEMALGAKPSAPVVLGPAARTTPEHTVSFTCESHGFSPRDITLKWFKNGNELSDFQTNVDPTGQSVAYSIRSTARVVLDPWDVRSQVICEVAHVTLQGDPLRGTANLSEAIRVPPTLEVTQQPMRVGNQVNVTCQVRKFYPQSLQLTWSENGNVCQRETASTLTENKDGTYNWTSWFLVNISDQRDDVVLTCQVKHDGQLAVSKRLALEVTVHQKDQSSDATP

| Binder | binding result [1] | binding result [2] | binding result [3] | MFI fold change over parental CHO [4] | MFI fold change over parental CHO [5] | kdis [6] |
| --- | --- | --- | --- | --- | --- | --- |
| Antibody 40 (scFv, V domains shown, scFv in crude PPE, V5/myc-tagged) VH: QVQLVQSGAEVKKPGSSVKVSCKASGGTFSSYAISWVRQAPGQGLEWVGRIHPRDGSTDYAQKFQGRVTITADESTSTAYMELSSLRSEDTAVYYCARVSLRFLEDYGMDVWGQGTTVTVSS VL: not shown | no binding (tested: fold change <2.0) | no binding (tested: fold change <2.0) | binds | 15.4 fold | 15.3 fold | 0.001 to 0.01 s⁻¹ |
| Antibody 26 (scFv, V domains shown, scFv in crude PPE, V5/myc-tagged) VH: QVQLVQSGAEVKKPGASVKVSCKASGYTFTSYYMHWVRQAPGQGLEWMGRINPNSGGTKYAQKFQGRVTMTRDTSTSTVYMELSSLRSEDTAVYYCARLGSAYFDLWGRGTLVTVSS VL: DIQMTQSPSSLSASVGDRVTITCRASQSVDTWLAWYQQKPGKAPKLLIYEASTLESGVPSRFSGSGSGTDFTLTISSLQPEDFATYYCQQANSFPITFGQGTRLEIK | – | no binding (tested: fold change <2.0) | binds | 28.4 fold | 40 fold | 0.001 to 0.01 s⁻¹ |
| Antibody 47 (scFv, V domains shown, scFv in crude PPE, V5/myc-tagged) VH: QVQLVQSGAEVKKPGASVKVSCKASGYTFTTYGISWVRQAPGQGLEWMGWMDPNSGSTGYAQKFQGRVTMTRDTSTSTVYMELSSLRSEDTAVYYCARGRGNSYYYYYMDVWGKGTTVTVSS VL: DIQMTQSPSSLSASVGDRVTITCRASQRIGSYLNWYQQKPGKAPKLLIYGASNLQSGVPSRFSGSGSGTDFTLTISSLQPEDFATYYCQQANSFPFTFGPGTKVDIK | no binding (tested: fold change <2.0) | no binding (tested: fold change <2.0) | binds | 17.3 fold | 14.2 fold | > 0.01 s⁻¹ |
| Antibody 49 (scFv, V domains shown, scFv in crude PPE, V5/myc-tagged) VH: QVQLVQSGAEVKKPGSSVKVSCKASGGTFSSYAISWVRQAPGQGLEWMGVINPSGGSTSYAQKFQGRVTITADESTSTAYMELSSLRSEDTAVYYCARESRGYYGMDVWGQGTTVTVSS VL: not shown | no binding (tested: fold change <2.0) | no binding (tested: fold change <2.0) | binds | 18.6 fold | 18.3 fold | > 0.01 s⁻¹ |
| Antibody 43 (scFv, V domains shown, scFv in crude PPE, V5/myc-tagged) VH: QVQLVQSGAEVKKPGASVKVSCKASGGTFTSYDINWVRQAPGQGLEWMGWISAYNGHTNYAQNLQGRVTMTRDTSTSTVYMELSSLRSEDTAVYYCAREDSSWYFDLWGRGTLVTVSS VL: DIQMTQSPSSLSASVGDRVTITCRASQSISSWLAWYQQKPGKAPKLLIYDASNLETGVPSRFSGSGSGTDFTLTISSLQPEDFATYYCQQSFSTPPTFGQGTKVEIK | no binding (tested: fold change <2.0) | no binding (tested: fold change <2.0) | binds | 41.2 fold | 22.7 fold | – |
| Antibody 50 (scFv, V domains shown, scFv in crude PPE, V5/myc-tagged) VH: QVQLVQSGAEVKKPGASVKVSCKASGYTFTGYYMHWVRQAPGQGLEWMGTINPSGGSTSYAQKFQGRVTMTRDTSTSTVYMELSSLRSEDTAVYYCVKGNGYYDLWGQGTLVTVSS VL: DIQMTQSPSSLSASVGDRVTITCRASQSISSWLAWYQQKPGKAPKLLIYDTSNLQGGVPSRFSGSGSGTDFTLTISSLQPEDFATYYCQQYDSFPWTFGQGTKVEIK | no binding (tested: fold change <2.0) | no binding (tested: fold change <2.0) | binds | 12.8 fold | 30.8 fold | > 0.01 s⁻¹ |
| Antibody 17 (scFv, V domains shown, scFv in crude PPE, V5/myc-tagged) VH: QVQLVQSGAEVKKPGASVKVSCKASGYTFTRNYVHWVRQAPGQGLEWMGRINPNSGGTNTAQKFQGRVTMTRDTSTSTVYMELSSLRSEDTAVYYCARLGDVAVAASFDYWGQGTLVTVSS VL: DIQMTQSPSSLSASVGDRVTITCRASQSISSYLNWYQQKPGKAPKLLIYDASSLESGVPSRFSGSGSGTDFTLTISSLQPEDFATYYCQQANSFPLTFGPGTKVDIK | – | no binding (tested: fold change <2.0) | binds | 28.3 fold | 30.1 fold | – |
| Antibody 37 (scFv, V domains shown, scFv in crude PPE, V5/myc-tagged) VH: QVQLVQSGAEVKKPGASVKVSCKASGYTLNNYDINWVRQAPGQGLEWMGWISGYNGNTNYAQKLQGRVTMTRDTSTSTVYMELSSLRSEDTAVYYCARVGSSWEENDQWGQGTLVTVSS VL: DIQMTQSPSSLSASVGDRVTITCRASQSISRWLAWYQQKPGKAPKLLIYAASSLESGVPSRFSGSGSGTDFTLTISSLQPEDFATYYCQQTHSFPLTFGGGTKVEIK | no binding (tested: fold change <2.0) | – | binds | 31.1 fold | 15.5 fold | 0.001 to 0.01 s⁻¹ |

Second part, the binder after the results:

| binding result [1] | binding result [2] | binding result [3] | MFI fold change over parental CHO [4] | MFI fold change over parental CHO [5] | kdis [6] | Binder |
| --- | --- | --- | --- | --- | --- | --- |
| no binding (tested: fold change <2.0) | no binding (tested: fold change <2.0) | binds | 7.06 fold | 5.22 fold | 0.001 to 0.01 s⁻¹ | Antibody 13 (scFv, V domains shown, scFv in crude PPE, V5/myc-tagged) VH: EVQLLESGGGLVQPGGSLRLSCAASGFTFSNSDMNWVRQAPGKGLEWVSYISSSGNTIYYADSVKGRFTISRDNSKNTLYLQMNSLRAEDTAVYYCARSNWNYPLDYYYMDVWGKGTTVTVSS VL: DIVMTQSPLSLPVTPGEPASISCRSSQSLLHSNGYNYLDWYLQKPGQSPQLLIYAASSLQSGVPDRFSGSGSGTDFTLKISRVEAEDVGVYYCMQGTHWPPTFGQGTKVEIK |
| no binding (tested: fold change <2.0) | no binding (tested: fold change <2.0) | binds | 25.5 fold | 36.1 fold | > 0.01 s⁻¹ | Antibody 41 (scFv, V domains shown, scFv in crude PPE, V5/myc-tagged) VH: QVQLVQSGAEVKKPGSSVKVSCKASGGTFSNYAISWVRQAPGQGLEWMGGIIPIFGSTASYAQKFQGRVTITADESTSTAYMELSSLRSEDTAVYYCARGVGDDTLTDWGQGTLVTVSS VL: DIVMTQSPLSLPVTPGEPASISCRSSQSLLHSNGYNYLDWYLQKPGQSPQLLIYAASSLQSGVPDRFSGSGSGTDFTLKISRVEAEDVGVYYCMQALQTPLTFGGGTKVEIK |
| no binding (tested: fold change <2.0) | no binding (tested: fold change <2.0) | binds | 15.9 fold | 14.5 fold | > 0.01 s⁻¹ | Antibody 42 (scFv, V domains shown, scFv in crude PPE, V5/myc-tagged) VH: QVQLVQSGAEVKKPGASVKVSCKASGYTFTSYHMHWVRQAPGQGLEWMGWMNPNSGNTGYAQKFQGRVTMTRDTSTSTVYMELSSLRSEDTAVYYCARGGRVVRGVIKGWFDPWGQGTLVTVSS VL: not shown |
